This experiment addresses acetylcholine receptor (Homo sapiens, UniProt P02708). Description: SPR binding affinity (RU) of optimized 5mer/6mer/7mer peptides, Examples 6-7. As to conditions: SPR, peptides tested at 10 μM. The protocol: Based on the frequencies of occurrence of the top 7 amino acids from Table 7 in Example 5, 600 peptides comprising these amino acids (top combinations) and those comprising the 13 less frequently occurring amino acids (bottom combinations) were synthesized for each series of 5mer, 6mer-1, and 6mer-2. The binding affinity of each sequence for the acetylcholine receptor was measured using Surface Plasmon Resonance (SPR) analysis method. The peptides were tested at a concentration of 10 μM. Additionally, the average binding affinities of the top and bottom combinations in each series are depicted in FIGS. 5-7.
Representative peptides identified in Example 6, two in each library, including 5mers (73, 311) and 6mers-1 (43, 210) and 6mers-2 (136, 233), were compared with the pre-optimized 6mer, 5mer-ND, and Synake.

The mark [1] stands for this setting: Resonance Units, 5mer Bottom sequence (bottom combinations).

This is an account of results in US20250011363A1, “OPTIMIZED SHORTENED PEPTIDE THAT BINDS TO ACETYLCHOLINE RECEPTOR, AND USE THEREOF” (SKINMED CO., LTD., priority 2021, published 2025).

Chain of acetylcholine receptor (P02708 21-457): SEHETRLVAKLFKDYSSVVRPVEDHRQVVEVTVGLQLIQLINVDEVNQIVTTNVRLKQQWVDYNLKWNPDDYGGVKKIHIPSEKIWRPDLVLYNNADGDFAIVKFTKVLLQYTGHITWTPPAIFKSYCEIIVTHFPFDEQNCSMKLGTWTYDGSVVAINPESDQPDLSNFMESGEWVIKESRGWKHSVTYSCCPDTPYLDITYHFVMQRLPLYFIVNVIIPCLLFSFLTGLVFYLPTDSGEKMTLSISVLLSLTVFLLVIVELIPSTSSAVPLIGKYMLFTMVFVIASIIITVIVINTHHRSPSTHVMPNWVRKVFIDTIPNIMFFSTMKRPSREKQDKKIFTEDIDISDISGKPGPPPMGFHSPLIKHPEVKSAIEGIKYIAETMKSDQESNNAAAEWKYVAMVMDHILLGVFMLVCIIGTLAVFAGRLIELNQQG

With 5mer-712 (RADFK), under setting [1], the Binding affinity is 18 Ru.

For the substance 5mer-713 (KYPKK), the Binding affinity under setting [1] is 16 Ru.

With 5mer-714 (RPCAK), under setting [1], the Binding affinity stood at 32 Ru.

With 5mer-715 (KCNGR), the Binding affinity under setting [1] came to 22 Ru.

As to 5mer-716 (KINVR), the Binding affinity under setting [1] is on record as 25 Ru.

In the case of 5mer-717 (KCKFR), the Binding affinity under setting [1] amounted to 20 Ru.

Turning to 5mer-718 (RNKKK), the Binding affinity under setting [1] is 19 Ru.

As for 5mer-719 (KISER), the Binding affinity under setting [1] stood at 21 Ru.

Consider 5mer-720 (KDPKR), for which the Binding affinity under setting [1] was determined as 32 Ru.

Turning to 5mer-721 (RYSKK), the Binding affinity under setting [1] was determined as 22 Ru.

On to 5mer-722 (KNHKK), for which the Binding affinity under setting [1] came out at 33 Ru.

Take 5mer-723 (RASPR): the Binding affinity under setting [1] is listed as 22 Ru.

For the substance 5mer-724 (KTTAK), the Binding affinity under setting [1] is reported as 14 Ru.

Regarding 5mer-725 (RNADR), the Binding affinity under setting [1] was determined as 19 Ru.

As for 5mer-726 (KATMK), the Binding affinity under setting [1] was determined as 33 Ru.

For the substance 5mer-727 (KMDAR), the Binding affinity under setting [1] was found to be 31 Ru.

As to 5mer-728 (KPHIK), the Binding affinity under setting [1] turned out to be 19 Ru.

For the substance 5mer-729 (KEPDK), the Binding affinity under setting [1] was found to be 23 Ru.

For the substance 5mer-730 (KFCNK), the Binding affinity under setting [1] is on record as 27 Ru.

Regarding 5mer-731 (KADHK), the Binding affinity under setting [1] is recorded as 18 Ru.

As to 5mer-732 (KIMWR), the Binding affinity under setting [1] is listed as 22 Ru.

Regarding 5mer-733 (KTCDR), the Binding affinity under setting [1] stood at 23 Ru.

5mer-734 (KATER): under setting [1], the Binding affinity came out at 16 Ru.

Regarding 5mer-735 (RHCER), the Binding affinity under setting [1] is 11 Ru.

For the substance 5mer-736 (KKHHR), under setting [1], the Binding affinity was 24 Ru.

Regarding 5mer-737 (RINVR), the Binding affinity under setting [1] is 13 Ru.

5mer-738 (KTPMK): the Binding affinity under setting [1] is recorded as 29 Ru.

For 5mer-739 (KDCPR), the Binding affinity under setting [1] came out at 16 Ru.

For 5mer-740 (RMMGK), the Binding affinity under setting [1] came to 21 Ru.

With 5mer-741 (KPTPR), the Binding affinity under setting [1] is listed as 14 Ru.

On to 5mer-742 (RNSDK), for which, under setting [1], the Binding affinity was found to be 11 Ru.

Consider 5mer-743 (KYAFR), for which, under setting [1], the Binding affinity came to 15 Ru.

As to 5mer-744 (KTEAK), the Binding affinity under setting [1] is 32 Ru.

Regarding 5mer-745 (RMEIK), under setting [1], the Binding affinity came to 14 Ru.

As for 5mer-746 (RMTVK), the Binding affinity under setting [1] is 26 Ru.

On to 5mer-747 (RKTDK), for which, under setting [1], the Binding affinity amounted to 31 Ru.

Turning to 5mer-748 (REPMK), the Binding affinity under setting [1] was 12 Ru.

As to 5mer-749 (KHTWR), the Binding affinity under setting [1] is listed as 24 Ru.

5mer-750 (KEADK): the Binding affinity under setting [1] is listed as 13 Ru.

As for 5mer-751 (RYMMR), the Binding affinity under setting [1] was determined as 20 Ru.

As to 5mer-752 (KAWVK), the Binding affinity under setting [1] is 26 Ru.

With 5mer-753 (RKTPK), the Binding affinity under setting [1] is 30 Ru.

5mer-754 (RKNER): under setting [1], the Binding affinity amounted to 29 Ru.

With 5mer-755 (KNWDR), under setting [1], the Binding affinity is on record as 15 Ru.

For 5mer-756 (RCDWR), under setting [1], the Binding affinity is recorded as 18 Ru.

In the case of 5mer-757 (KYCMR), the Binding affinity under setting [1] is on record as 17 Ru.

As for 5mer-758 (KCDFK), the Binding affinity under setting [1] stood at 30 Ru.

Consider 5mer-759 (KHKMR), for which the Binding affinity under setting [1] amounted to 17 Ru.

Turning to 5mer-760 (RIWAR), the Binding affinity under setting [1] was 19 Ru.

For the substance 5mer-761 (RMPWR), the Binding affinity under setting [1] turned out to be 31 Ru.

On to 5mer-762 (KMPER), for which, under setting [1], the Binding affinity is given as 21 Ru.

Take 5mer-763 (RCHVR): under setting [1], the Binding affinity is given as 30 Ru.

5mer-764 (KTWPK): the Binding affinity under setting [1] amounted to 19 Ru.

With 5mer-765 (RNEFR), the Binding affinity under setting [1] is 12 Ru.

On to 5mer-766 (RNMEK), for which the Binding affinity under setting [1] was determined as 30 Ru.

On to 5mer-767 (RFHFK), for which, under setting [1], the Binding affinity worked out at 12 Ru.

Regarding 5mer-768 (RDSWR), the Binding affinity under setting [1] turned out to be 11 Ru.

Consider 5mer-769 (KTEWK), for which the Binding affinity under setting [1] was 32 Ru.

Turning to 5mer-770 (KKPFR), the Binding affinity under setting [1] is 11 Ru.

On to 5mer-771 (RKWVK), for which, under setting [1], the Binding affinity was 24 Ru.

For 5mer-772 (KYWFK), the Binding affinity under setting [1] is 11 Ru.

On to 5mer-773 (RPNMR), for which, under setting [1], the Binding affinity is 25 Ru.

5mer-774 (RTCDR): under setting [1], the Binding affinity came to 25 Ru.

For 5mer-775 (RHTVK), under setting [1], the Binding affinity came to 23 Ru.

Regarding 5mer-776 (RCDFR), under setting [1], the Binding affinity came to 17 Ru.

With 5mer-777 (RYNWK), the Binding affinity under setting [1] was found to be 28 Ru.

On to 5mer-778 (KKDHK), for which the Binding affinity under setting [1] is on record as 24 Ru.

Take 5mer-779 (KYPPR): the Binding affinity under setting [1] is 21 Ru.

For the substance 5mer-780 (RDSHK), the Binding affinity under setting [1] was determined as 27 Ru.

Turning to 5mer-781 (RIDPR), under setting [1], the Binding affinity is 28 Ru.

For the substance 5mer-782 (KANAR), the Binding affinity under setting [1] is listed as 32 Ru.

For 5mer-783 (KCKVR), the Binding affinity under setting [1] amounted to 29 Ru.

With 5mer-784 (RACEK), the Binding affinity under setting [1] amounted to 21 Ru.

As for 5mer-785 (KPTIR), the Binding affinity under setting [1] is listed as 31 Ru.

As for 5mer-786 (RFNKK), the Binding affinity under setting [1] is given as 29 Ru.

For 5mer-787 (KDNIR), the Binding affinity under setting [1] came to 17 Ru.

In the case of 5mer-788 (KYHGK), the Binding affinity under setting [1] amounted to 16 Ru.

For the substance 5mer-789 (KFWIR), the Binding affinity under setting [1] was 12 Ru.

With 5mer-790 (REAGK), under setting [1], the Binding affinity turned out to be 33 Ru.

For the substance 5mer-791 (KTKMR), the Binding affinity under setting [1] amounted to 26 Ru.

For the substance 5mer-792 (RMEKK), the Binding affinity under setting [1] amounted to 31 Ru.

For 5mer-793 (KKPHR), the Binding affinity under setting [1] came to 19 Ru.

With 5mer-794 (KEAPK), the Binding affinity under setting [1] is 20 Ru.

As for 5mer-795 (RTKKR), the Binding affinity under setting [1] came to 20 Ru.

Consider 5mer-796 (KNWVR), for which, under setting [1], the Binding affinity is 17 Ru.

With 5mer-797 (KETHK), the Binding affinity under setting [1] was 15 Ru.

For the substance 5mer-798 (RETMK), the Binding affinity under setting [1] was 13 Ru.

Regarding 5mer-799 (KDKPR), the Binding affinity under setting [1] is recorded as 24 Ru.

Regarding 5mer-800 (KEAPR), the Binding affinity under setting [1] is on record as 29 Ru.

Regarding 5mer-801 (KFHGR), under setting [1], the Binding affinity came out at 20 Ru.

On to 5mer-802 (RITVR), for which the Binding affinity under setting [1] is 27 Ru.

For the substance 5mer-803 (RFSDR), the Binding affinity under setting [1] is reported as 11 Ru.

For 5mer-804 (RNTIR), under setting [1], the Binding affinity came to 20 Ru.

Consider 5mer-805 (RPTNR), for which the Binding affinity under setting [1] amounted to 27 Ru.

5mer-806 (RKMFR): the Binding affinity under setting [1] is reported as 17 Ru.

On to 5mer-807 (RKNKK), for which the Binding affinity under setting [1] is reported as 20 Ru.

As for 5mer-808 (KFCIR), the Binding affinity under setting [1] is listed as 13 Ru.

5mer-809 (RKSGK): the Binding affinity under setting [1] worked out at 15 Ru.

With 5mer-810 (KFHKK), the Binding affinity under setting [1] amounted to 11 Ru.

5mer-811 (KMTMR): the Binding affinity under setting [1] came to 32 Ru.

For the substance 5mer-812 (KTEGR), for the setting “5mer Bottom sequence”, the Binding affinity amounted to 27 Ru.

5mer-813 (RAHVR): where the note is “5mer Bottom sequence”, the Binding affinity is 21 Ru.

5mer-814 (RITMR): for the setting “5mer Bottom sequence”, the Binding affinity turned out to be 11 Ru.

For 5mer-815 (RKDHR), under “5mer Bottom sequence”, the Binding affinity came to 27 Ru.

For the substance 5mer-816 (RKPIK), the Binding affinity (5mer Bottom sequence) was 26 Ru.

As for 5mer-817 (RHKDR), the Binding affinity (5mer Bottom sequence) came to 23 Ru.

In the case of 5mer-818 (KHWHR), the Binding affinity (5mer Bottom sequence) is 12 Ru.

As for 5mer-819 (RNTIK), the Binding affinity (5mer Bottom sequence) was found to be 19 Ru.

With 5mer-820 (RIMHK), the Binding affinity (5mer Bottom sequence) came to 28 Ru.

For 5mer-821 (RESDR), the Binding affinity (5mer Bottom sequence) amounted to 12 Ru.

For the substance 5mer-822 (RAKGK), the Binding affinity (5mer Bottom sequence) worked out at 16 Ru.

Regarding 5mer-823 (KECFK), the Binding affinity (5mer Bottom sequence) is on record as 26 Ru.

For 5mer-824 (KIDMK), the Binding affinity (5mer Bottom sequence) came out at 13 Ru.

5mer-825 (RDEKK): for the setting “5mer Bottom sequence”, the Binding affinity worked out at 14 Ru.

Regarding 5mer-826 (KCKMK), the Binding affinity (5mer Bottom sequence) is on record as 11 Ru.

As to 5mer-827 (KKAGR), the Binding affinity (5mer Bottom sequence) is on record as 18 Ru.

5mer-828 (RFCWR): the Binding affinity (5mer Bottom sequence) worked out at 27 Ru.

With 5mer-829 (KCWHR), where the note is “5mer Bottom sequence”, the Binding affinity was 26 Ru.

As for 5mer-830 (RIDGK), where the note is “5mer Bottom sequence”, the Binding affinity stood at 25 Ru.

As for 5mer-831 (RAAGK), for the setting “5mer Bottom sequence”, the Binding affinity is 24 Ru.

As to 5mer-832 (RMHER), for the setting “5mer Bottom sequence”, the Binding affinity is 18 Ru.

On to 5mer-833 (KATAK), for which the Binding affinity (5mer Bottom sequence) is recorded as 33 Ru.

With 5mer-834 (RMNIK), where the note is “5mer Bottom sequence”, the Binding affinity was 15 Ru.

On to 5mer-835 (RFMMR), for which the Binding affinity (5mer Bottom sequence) is 14 Ru.

Turning to 5mer-836 (REWNR), for the setting “5mer Bottom sequence”, the Binding affinity came out at 15 Ru.

On to 5mer-837 (RPMDR), for which the Binding affinity (5mer Bottom sequence) is given as 28 Ru.

As to 5mer-838 (RHSMK), the Binding affinity (5mer Bottom sequence) came out at 13 Ru.

Turning to 5mer-839 (RHHDK), the Binding affinity (5mer Bottom sequence) amounted to 26 Ru.

Consider 5mer-840 (KDTAR), for which, under “5mer Bottom sequence”, the Binding affinity is given as 11 Ru.

Turning to 5mer-841 (KNEMR), the Binding affinity (5mer Bottom sequence) came out at 22 Ru.

Take 5mer-842 (RHNVK): the Binding affinity (5mer Bottom sequence) was determined as 20 Ru.

Turning to 5mer-843 (KTTPK), the Binding affinity (5mer Bottom sequence) is recorded as 17 Ru.

With 5mer-844 (KTDPR), the Binding affinity (5mer Bottom sequence) amounted to 32 Ru.

Consider 5mer-845 (RYEDR), for which, under “5mer Bottom sequence”, the Binding affinity is 15 Ru.

Consider 5mer-846 (RPDWR), for which, where the note is “5mer Bottom sequence”, the Binding affinity is listed as 32 Ru.

Consider 5mer-847 (KAPEK), for which the Binding affinity (5mer Bottom sequence) was determined as 28 Ru.
